{"source": "patent US20160200782A1", "about": "(MOERAE MATRIX, published 2016); also: test concentration or dose not given here", "assay_in_all_cases": "cell-based or functional assay", "key": {"CDK7/cyclinH/MAT1(h)": {"target": "CDK7/cyclinH/MAT1(h) (human, UniProt P50613 1-346; P51946 1-323; P51948 1-309)", "sequence (P50613 whole entry, chain 1 of 3)": "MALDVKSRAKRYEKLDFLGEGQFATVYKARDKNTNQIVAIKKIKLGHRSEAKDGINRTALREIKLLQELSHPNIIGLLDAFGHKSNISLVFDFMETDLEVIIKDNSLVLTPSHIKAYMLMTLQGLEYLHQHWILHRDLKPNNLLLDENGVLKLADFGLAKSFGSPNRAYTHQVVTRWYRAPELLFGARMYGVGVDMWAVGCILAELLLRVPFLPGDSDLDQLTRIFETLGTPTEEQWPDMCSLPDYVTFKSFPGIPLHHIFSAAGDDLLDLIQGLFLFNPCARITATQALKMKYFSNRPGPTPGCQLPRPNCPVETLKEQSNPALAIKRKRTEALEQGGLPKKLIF", "sequence (P51946 whole entry, chain 2 of 3)": "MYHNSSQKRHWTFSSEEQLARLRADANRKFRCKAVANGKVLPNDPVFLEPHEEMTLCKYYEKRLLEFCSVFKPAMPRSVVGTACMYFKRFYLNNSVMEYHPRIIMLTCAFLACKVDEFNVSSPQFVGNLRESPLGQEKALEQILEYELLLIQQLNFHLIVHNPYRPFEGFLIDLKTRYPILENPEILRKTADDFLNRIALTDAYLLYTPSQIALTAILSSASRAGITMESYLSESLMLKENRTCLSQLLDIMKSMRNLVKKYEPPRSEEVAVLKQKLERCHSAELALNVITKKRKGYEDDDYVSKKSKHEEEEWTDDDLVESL", "sequence (P51948 whole entry, chain 3 of 3)": "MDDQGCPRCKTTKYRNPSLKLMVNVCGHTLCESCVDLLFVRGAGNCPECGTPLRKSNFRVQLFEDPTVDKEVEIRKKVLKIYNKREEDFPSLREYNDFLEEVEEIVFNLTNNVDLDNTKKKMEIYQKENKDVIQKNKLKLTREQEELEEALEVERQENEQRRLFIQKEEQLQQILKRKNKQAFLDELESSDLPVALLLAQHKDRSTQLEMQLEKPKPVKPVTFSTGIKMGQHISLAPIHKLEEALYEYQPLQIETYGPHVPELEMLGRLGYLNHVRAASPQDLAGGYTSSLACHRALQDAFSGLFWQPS"}, "PRAK(h)": {"target": "T1, PRAK(h) (human, UniProt Q8IW41 1-473, limits assumed)", "T1 sequence (looked up)": "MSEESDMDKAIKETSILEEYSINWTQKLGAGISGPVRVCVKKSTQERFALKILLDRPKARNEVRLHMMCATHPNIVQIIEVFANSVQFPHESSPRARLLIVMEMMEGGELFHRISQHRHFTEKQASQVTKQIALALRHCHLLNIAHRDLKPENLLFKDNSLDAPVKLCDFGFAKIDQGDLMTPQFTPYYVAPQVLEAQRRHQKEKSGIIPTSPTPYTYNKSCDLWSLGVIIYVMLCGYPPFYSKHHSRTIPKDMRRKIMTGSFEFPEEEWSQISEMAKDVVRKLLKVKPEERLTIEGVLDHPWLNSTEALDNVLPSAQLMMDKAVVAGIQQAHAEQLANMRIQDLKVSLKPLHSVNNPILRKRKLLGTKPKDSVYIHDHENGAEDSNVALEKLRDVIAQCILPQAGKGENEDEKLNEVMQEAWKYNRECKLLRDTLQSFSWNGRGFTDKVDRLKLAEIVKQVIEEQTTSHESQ"}, "MRCKβ(h)": {"target": "T2, MRCKβ(h) (human, UniProt Q9Y5S2 1-473, limits assumed)", "T2 sequence (looked up)": "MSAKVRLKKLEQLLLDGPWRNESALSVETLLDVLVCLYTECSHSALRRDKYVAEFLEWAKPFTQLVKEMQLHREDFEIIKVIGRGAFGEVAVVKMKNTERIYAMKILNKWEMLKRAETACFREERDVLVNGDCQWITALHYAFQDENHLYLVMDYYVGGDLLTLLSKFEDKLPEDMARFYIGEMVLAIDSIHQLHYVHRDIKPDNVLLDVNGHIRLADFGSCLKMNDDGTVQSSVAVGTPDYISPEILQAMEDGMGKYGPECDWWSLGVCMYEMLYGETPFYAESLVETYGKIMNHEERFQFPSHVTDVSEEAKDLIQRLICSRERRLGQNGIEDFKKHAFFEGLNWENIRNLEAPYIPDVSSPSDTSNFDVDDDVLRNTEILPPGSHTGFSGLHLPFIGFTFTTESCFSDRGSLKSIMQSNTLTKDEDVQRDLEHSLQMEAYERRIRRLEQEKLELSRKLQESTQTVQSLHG"}, "SGK(h)": {"target": "T3, SGK(h) (human, UniProt O00141 60-431)", "T3 sequence (looked up)": "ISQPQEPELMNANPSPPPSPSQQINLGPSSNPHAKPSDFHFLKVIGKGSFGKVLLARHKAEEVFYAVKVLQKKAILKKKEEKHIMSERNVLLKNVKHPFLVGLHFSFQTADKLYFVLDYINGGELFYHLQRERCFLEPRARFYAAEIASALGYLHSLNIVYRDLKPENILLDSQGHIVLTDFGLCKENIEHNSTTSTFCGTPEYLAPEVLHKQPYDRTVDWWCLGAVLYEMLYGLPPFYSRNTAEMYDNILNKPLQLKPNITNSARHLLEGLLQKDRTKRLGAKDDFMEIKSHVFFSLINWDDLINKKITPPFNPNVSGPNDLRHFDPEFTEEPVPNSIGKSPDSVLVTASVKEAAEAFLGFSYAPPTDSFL"}, "SGK3(h)": {"target": "T4, SGK3(h) (human, UniProt Q96BR1 1-496, limits assumed)", "T4 sequence (looked up)": "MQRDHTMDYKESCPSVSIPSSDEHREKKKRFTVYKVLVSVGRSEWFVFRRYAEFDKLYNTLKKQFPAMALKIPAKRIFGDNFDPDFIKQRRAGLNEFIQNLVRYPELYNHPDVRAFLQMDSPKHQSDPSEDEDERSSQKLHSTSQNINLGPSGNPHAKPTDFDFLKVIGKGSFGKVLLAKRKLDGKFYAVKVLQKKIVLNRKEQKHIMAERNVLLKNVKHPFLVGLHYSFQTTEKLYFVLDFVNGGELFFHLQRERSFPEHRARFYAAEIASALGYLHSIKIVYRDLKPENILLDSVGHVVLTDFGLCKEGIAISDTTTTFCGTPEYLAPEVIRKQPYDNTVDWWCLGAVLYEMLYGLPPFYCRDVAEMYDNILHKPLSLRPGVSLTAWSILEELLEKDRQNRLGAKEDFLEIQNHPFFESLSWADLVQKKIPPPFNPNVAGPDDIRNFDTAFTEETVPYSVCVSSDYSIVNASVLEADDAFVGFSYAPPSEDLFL"}, "Flt3(h)": {"target": "T5, Flt3(h) (human, UniProt P36888 564-993, limits assumed)", "T5 sequence (looked up)": "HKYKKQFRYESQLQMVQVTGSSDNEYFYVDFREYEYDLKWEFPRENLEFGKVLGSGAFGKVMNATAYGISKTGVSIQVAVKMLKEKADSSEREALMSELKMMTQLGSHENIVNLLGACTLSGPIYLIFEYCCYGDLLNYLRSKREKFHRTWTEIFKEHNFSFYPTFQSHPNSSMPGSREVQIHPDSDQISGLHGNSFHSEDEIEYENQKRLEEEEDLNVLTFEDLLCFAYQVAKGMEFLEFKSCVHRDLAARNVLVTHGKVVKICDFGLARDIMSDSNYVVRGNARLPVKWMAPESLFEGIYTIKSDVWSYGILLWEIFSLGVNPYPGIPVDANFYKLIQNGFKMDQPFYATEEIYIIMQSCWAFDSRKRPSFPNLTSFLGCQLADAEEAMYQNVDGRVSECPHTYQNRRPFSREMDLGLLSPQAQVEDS"}, "Haspin(h)": {"target": "T6, Haspin(h) (human, UniProt Q8TF76 471-798, limits assumed)", "T6 sequence (looked up)": "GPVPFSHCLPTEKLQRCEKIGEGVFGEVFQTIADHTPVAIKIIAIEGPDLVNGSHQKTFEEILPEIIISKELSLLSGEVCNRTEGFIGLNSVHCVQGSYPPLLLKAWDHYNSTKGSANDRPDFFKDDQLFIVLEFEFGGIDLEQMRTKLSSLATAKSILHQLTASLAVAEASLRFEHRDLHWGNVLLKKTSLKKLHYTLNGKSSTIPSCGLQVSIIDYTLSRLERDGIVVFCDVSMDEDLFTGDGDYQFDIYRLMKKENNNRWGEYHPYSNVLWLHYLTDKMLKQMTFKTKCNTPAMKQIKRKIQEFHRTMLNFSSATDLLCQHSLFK"}, "Tie2(R849W)(h)": {"target": "Tie2(R849W)(h) (human, UniProt Q02763 771-1124, limits assumed)", "sequence (Q02763 771-1124 R849W limits assumed)": "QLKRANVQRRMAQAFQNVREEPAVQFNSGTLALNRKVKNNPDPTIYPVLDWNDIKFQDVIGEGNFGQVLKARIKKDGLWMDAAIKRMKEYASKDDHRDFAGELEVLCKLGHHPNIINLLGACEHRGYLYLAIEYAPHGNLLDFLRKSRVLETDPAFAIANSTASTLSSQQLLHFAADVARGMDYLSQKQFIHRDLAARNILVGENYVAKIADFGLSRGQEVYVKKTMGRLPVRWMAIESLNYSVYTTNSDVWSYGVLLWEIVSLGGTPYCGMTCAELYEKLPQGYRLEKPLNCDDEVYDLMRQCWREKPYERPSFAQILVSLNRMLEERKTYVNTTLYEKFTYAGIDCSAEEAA"}, "Plk1(h)": {"target": "Plk1(h) (human, UniProt P53350 1-603, limits assumed)", "sequence (P53350 whole entry)": "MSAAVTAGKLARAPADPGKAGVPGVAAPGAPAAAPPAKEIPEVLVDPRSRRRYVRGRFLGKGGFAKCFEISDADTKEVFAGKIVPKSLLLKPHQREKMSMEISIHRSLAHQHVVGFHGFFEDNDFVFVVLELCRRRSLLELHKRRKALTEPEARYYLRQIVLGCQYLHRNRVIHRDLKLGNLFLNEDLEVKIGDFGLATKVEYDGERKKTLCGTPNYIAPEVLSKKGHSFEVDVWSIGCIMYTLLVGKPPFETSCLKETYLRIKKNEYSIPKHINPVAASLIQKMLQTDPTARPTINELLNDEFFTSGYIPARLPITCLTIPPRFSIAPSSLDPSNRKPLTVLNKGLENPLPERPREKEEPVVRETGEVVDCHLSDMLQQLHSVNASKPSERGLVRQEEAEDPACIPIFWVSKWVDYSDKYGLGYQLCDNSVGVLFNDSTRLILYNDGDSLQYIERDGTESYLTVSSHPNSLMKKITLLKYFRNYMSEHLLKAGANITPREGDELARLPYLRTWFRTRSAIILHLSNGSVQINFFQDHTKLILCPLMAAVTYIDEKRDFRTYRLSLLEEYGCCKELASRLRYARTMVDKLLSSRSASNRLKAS"}}}
{"binder": "FAKLAARLYRKALARQLGVAA", "note": "[MMI-0300]", "values": [{"measurement": "% activity", "setting": "CDK7/cyclinH/MAT1(h)", "value": 65, "unit": "%"}, {"measurement": "% activity", "setting": "PRAK(h)", "value": 128, "unit": "%"}, {"measurement": "% activity", "setting": "MRCKβ(h)", "value": 83, "unit": "%"}, {"measurement": "% activity", "setting": "SGK(h)", "value": 48, "unit": "%"}, {"measurement": "% activity", "setting": "SGK3(h)", "value": 10, "unit": "%"}, {"measurement": "% activity", "setting": "Flt3(h)", "value": 84, "unit": "%"}, {"measurement": "% activity", "setting": "Haspin(h)", "value": 48, "unit": "%"}]}
{"binder": "KAFAKLAARLYRKALARQLGVAA", "note": "[MMI-0400]", "values": [{"measurement": "% activity", "setting": "CDK7/cyclinH/MAT1(h)", "value": 47, "unit": "%"}, {"measurement": "% activity", "setting": "Tie2(R849W)(h)", "value": 108, "unit": "%"}, {"measurement": "% activity", "setting": "PRAK(h)", "value": 118, "unit": "%"}, {"measurement": "% activity", "setting": "MRCKβ(h)", "value": 71, "unit": "%"}, {"measurement": "% activity", "setting": "SGK(h)", "value": 54, "unit": "%"}, {"measurement": "% activity", "setting": "Plk1(h)", "value": 119, "unit": "%"}, {"measurement": "% activity", "setting": "SGK3(h)", "value": 8, "unit": "%"}, {"measurement": "% activity", "setting": "Flt3(h)", "value": 18, "unit": "%"}, {"measurement": "% activity", "setting": "Haspin(h)", "value": 36, "unit": "%"}]}
